Results as given in patent publication US11666658B2, “Rifamycin analogs and antibody-drug conjugates thereof” (Regeneron Pharmaceuticals, Inc., priority 2018, dated 2023).

Tested on: MSR1 negative B16F10.9 cells
Experiment: Flow cytometry cell surface binding, MSR1 negative cells
Set-up: species or system mouse
Procedure: Relative cell surface binding of the anti-MSR1 antibodies to mouse MSR1 expressing cells was determined by flow cytometry using MSR1 positive RAW264.7 cells (ATCC, Catalog #TIB-71) and MSR1 negative B16F10.9 cells (Lin et al. 1998. PNAS 95:8829-8834). For the assay, cells were plated in PBS without calcium and magnesium (VWR Cat #45000-446) and 2% FBS (Saradigm Cat #1500-500) (Staining Buffer) in 96 well V-bottom plates (Axygen Scientific, Cat #P-96-450-V-C-S). To block binding to Fc receptors, RAW264.7 cells were incubated for 30 minutes at 4° C. with 500 μg/mL mouse IgG (Jackson ImmunoResearch, Cat #015-000-003) diluted in staining buffer, while B16F10.9 cells remained in staining buffer. Following Fc receptor blocking, 10 μg/mL of anti-MSR1 antibodies or an isotype control antibody were added to the cells and were subsequently incubated for 30 minutes on ice. For a positive control, a commercial anti-mouse MSR1 (Sino Biological, Cat #50129-R004) antibody was used, while a rabbit IgG antibody (Thermo Scientific, Cat #26102) was used as a negative control. […] Cells were subsequently washed and fixed using a 50% solution of Cytofix (BD Biosciences, Cat #554655) diluted in PBS. […] The signal to noise (S/N) was determined by calculating the ratio of the anti-MSR1 antibodies or the control antibodies MFI to the unstained sample MFI (Table 16).

B1: H1H21234N-N297Q: "An anti-MSR1 antibody H1H21234N containing a N297Q mutation, which eliminates N-linked glycosylation of the Fc at this site" (antibody, V domains shown)
VH: QVQLQESGPGLVKPSETLSLTCTVTGGSISRNYWSWIRQPPGKGLEWIGYIYYSGSIDYNPSLKSRVTISVDTSKNQFSLKLSSMTAADTAVYYCARDRWNWKYGMDVWGQGTTVIVSS
VL: EIVLTQSPGTLSLSPGERATLSCRASQTVRNNYLAWYHQKPGQAPRLLIYGASSRATGIPDRFSGSGSGTDFTLTISRLEPEDFTVYYCHQYGNSPWTFGQGTKMEIKR
B1 was tested, and the “B16F10.9 MFI” value (10 μg/mL antibody, flow cytometry) was 3499 and the “B16F10.9 S/N” value (ratio of antibody MFI to unstained sample MFI) was 1.
